Measured values published in patent publication US5279812.
Read-outs that look alike come from different tables or passages of the source.

Tests used:
Bovine thrombin (bovine) [1] = molecular target: Bovine thrombin (bovine) (UniProt P00735)
Bovine thrombin (bovine) [2] = molecular target: Bovine thrombin (bovine) (UniProt P00735); remark: listed apart in the source

IC50, thrombin induced fibrin clot inhibition assay (turbidity at 405 nM) (Bovine thrombin (bovine) [1]) [µM]	IC50, thrombin induced fibrin clot inhibition assay (turbidity at 405 nM) (Bovine thrombin (bovine) [2]) [µM]	Substance
< 25	–	Suc--Tyr--Glu--Pro--Ile--Pro--Glu--Glu--Cha--D--Glu (ID#21) (peptide)
< 25	–	Suc--Tyr--Glu--Pro--Ile--Pro--Glu--Glu--Cha--Gln--NH2 (ID#11) (peptide)
< 25	–	Suc--Tyr--Glu--Pro--Tiq--Glu--Glu--Ala--Cha--D--Glu (ID#9) (peptide)
–	< 25	Suc 3,5-diI-Tyr Glu Pro Ile Pro Glu Glu Ala Cha D-Glu (ID#4) (peptide)
